Source: patent US20130071921A1 (Pfizer, published 2013)

T1: Recombinant human Dkk-1 (R&D Systems cat no. 1096-DK/CF), 10xHis tag at the C terminal (human, UniProt O94907 32-266)
T1 construct: the actual N-terminus of the purified protein is marked in bold italic after residue 30, but the mark is an image lost in the text; also called rhuDkk-1; hDkk-1
T1 sequence: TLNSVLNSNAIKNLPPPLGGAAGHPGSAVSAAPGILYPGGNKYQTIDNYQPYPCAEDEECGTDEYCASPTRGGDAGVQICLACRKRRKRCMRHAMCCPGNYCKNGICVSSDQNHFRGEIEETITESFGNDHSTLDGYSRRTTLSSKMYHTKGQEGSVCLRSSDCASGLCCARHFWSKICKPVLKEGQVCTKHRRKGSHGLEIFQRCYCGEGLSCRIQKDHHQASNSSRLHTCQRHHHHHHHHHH


Columns and labels:
[1] = biological target: T1, Recombinant human Dkk-1 (R&D Systems …); assay: SPR screening 37C (BIAcore/ProteOn), Fab lysate over biotinylated human Dkk-1
Procedure: (§1) For screening assays to determine binding and dissociation rates of huMabJC18 variants to human Dkk1, either BIAcore or ProteOn XPR36 (BioRad, Inc.) systems were used. For the BIAcore assay, biotinylated-human Dkk1 was captured on SA (streptavidin) BIAcore chips according to the supplier's instructions. Biotinylated-human Dkk-1 protein was diluted into HBS-EP, and injected over the chip at a concentration of 5 μg/mL. Flow times across the individual chip channels were selected to achieve an antigen density of approximately 500-600 response units (RU). HBS-EP buffer was used as running buffer. Filtered recombinant E.coli cell lysates were injected at high temperature (37° C.) for 1 min at 30 ul/min, allowing a 1-5 min dissociation phase. Surfaces were regenerated with 8 mM NaOH+8% ethanol. A positive control Fab (clone 24) was injected twice at the start of the experiment, and again at the end of the assay to assess reproducibility.
(§2) For the ProteOn assay, biotinylated human Dkk-1 was injected for 1 min at serial fold dilutions empirically determined to yield different levels of immobilization (150-3000 RU) on five channels of a ProteOn NLC Neutravidin sensor chip. The sixth channel was left unmodified to serve as a reference surface. Recombinant Fabs in filtered E. coli lysates were injected at high temperature (37° C.) for 50 sec at 20 μl/min. Running buffer consisted of PBS+1 mg/ml BSA+0.005% Tween-20. The ProteOn is configured such that each injection flows over each of the five Dkk-1 channels as well as the reference channel, and six Fab samples can be injected simultaneously. Fab dissociation from the Dkk-1 surface was monitored for 20 min. The chip surface was regenerated with a 30-sec injection of 8% EtOH, 8 mM NaOH. Clone 24 Fab was used as control. Level of binding during association, and rate of dissociation for each clone was very consistent between different ligand channels.

[2] = biological target: T1, Recombinant human Dkk-1 (R&D Systems …); assay: theoretical: koff / estimated kon 1e6 1/Ms (SPR screening 37C)
Procedure: as §1
as §2, with “channels. […]” for “channels.”

Row | Binder | koff [1] [s⁻¹] | Kd [2] [nM]
1 | L2.4D11 (Fab, V domains shown, tested as Fab (E. coli lysate, screening mode); human kappa CL and IgG2 CH1 not included here) VH: EVQLVESGGGLVQPGGSLRLSCAASGFTFSSYAISWVRQAPGKGLEWVASVSGWMDTYYPDSVKGRFTISRDNAKNSLYLQMNSLRAEDTAVYYCATSLENYAFDYWGQGTTVTVSS VL: EIVLTQSPATLSLSPGERATLSCRASESVDDFGISFMNWYQQKPGQAPRLLIYAASKQGSGIPARFSGSGSGTDFTLTISSLEPEDFAVYYCQQSKEVPPTFGGGTKVEIK | 0.00326 | 3.26
2 | L2.P4.E7 (Fab, V domains shown, tested as Fab (E. coli lysate, screening mode); human kappa CL and IgG2 CH1 not included here) VH: EVQLVESGGGLVQPGGSLRLSCAASGFTFSSYAISWVRQAPGKGLEWVASVSGWGDTYYPDSVKGRFTISRDNAKNSLYLQMNSLRAEDTAVYYCATSLRNYAFDYWGQGTTVTVSS VL: EIVLTQSPATLSLSPGERATLSCRASESVDDFGISFMNWYQQKPGQAPRLLIYAASKQGSGIPARFSGSGSGTDFTLTISSLEPEDFAVYYCQQSKEVPPTFGGGTKVEIK | 0.00519 | 5.19
3 | L2.P4.C10 (Fab, V domains shown, tested as Fab (E. coli lysate, screening mode); human kappa CL and IgG2 CH1 not included here) VH: EVQLVESGGGLVQPGGSLRLSCAASGFTFSSYAISWVRQAPGKGLEWVASVSGWGDTYYPDSVKGRFTISRDNAKNSLYLQMNSLRAEDTAVYYCATSLKNYAFDYWGQGTTVTVSS VL: EIVLTQSPATLSLSPGERATLSCRASESVDDFGISFMNWYQQKPGQAPRLLIYAASKQGSGIPARFSGSGSGTDFTLTISSLEPEDFAVYYCQQSKEVPPTFGGGTKVEIK | 0.00431 | 4.31
4 | L2.1E5 (Fab, V domains shown, tested as Fab (E. coli lysate, screening mode); human kappa CL and IgG2 CH1 not included here; printed changes identical to clone 24) VH: EVQLVESGGGLVQPGGSLRLSCAASGFTFSSYAISWVRQAPGKGLEWVASVSGGGRTYYPDSVKGRFTISRDNAKNSLYLQMNSLRAEDTAVYYCATSLENYAFDYWGQGTTVTVSS VL: EIVLTQSPATLSLSPGERATLSCRASESVDDFGISFMNWYQQKPGQAPRLLIYAASKQGSGIPARFSGSGSGTDFTLTISSLEPEDFAVYYCQQSKEVPPTFGGGTKVEIK | 0.0057 | 5.7
5 | L2.1G4 (Fab, V domains shown, tested as Fab (E. coli lysate, screening mode); human kappa CL and IgG2 CH1 not included here) VH: EVQLVESGGGLVQPGGSLRLSCAASGFTFSSYAISWVRQAPGKGLEWVASVSGWFDTYYPDSVKGRFTISRDNAKNSLYLQMNSLRAEDTAVYYCATSLENYAFDKWGQGTTVTVSS VL: EIVLTQSPATLSLSPGERATLSCRASESVDDFGISFMNWYQQKPGQAPRLLIYAASKQGSGIPARFSGSGSGTDFTLTISSLEPEDFAVYYCQQSKEVPPTFGGGTKVEIK | 0.00312 | 3.12
6 | L2.4B10 (Fab, V domains shown, tested as Fab (E. coli lysate, screening mode); human kappa CL and IgG2 CH1 not included here) VH: EVQLVESGGGLVQPGGSLRLSCAASGFTFSSYAISWVRQAPGKGLEWVASVSGWYDTYYPDSVKGRFTISRDNAKNSLYLQMNSLRAEDTAVYYCATSLENYAFDYWGQGTTVTVSS VL: EIVLTQSPATLSLSPGERATLSCRASESVDDFGISFMNWYQQKPGQAPRLLIYAASKQGSGIPARFSGSGSGTDFTLTISSLEPEDFAVYYCQQSKEVPPTFGGGTKVEIK | 0.00345 | 3.45
7 | L2.P4.B5 (Fab, V domains shown, tested as Fab (E. coli lysate, screening mode); human kappa CL and IgG2 CH1 not included here) VH: EVQLVESGGGLVQPGGSLRLSCAASGFTFSSYAISWVRQAPGKGLEWVASVSGWGDTYYPDSVKGRFTISRDNAKNSLYLQMNSLRAEDTAVYYCATSYENYAFDYWGQGTTVTVSS VL: EIVLTQSPATLSLSPGERATLSCRASESVDDFGISFMNWYQQKPGQAPRLLIYAASKQGSGIPARFSGSGSGTDFTLTISSLEPEDFAVYYCQQSKEVPPTFGGGTKVEIK | 0.00532 | 5.32

Binders with a lower Kd [2], results first:

Row | koff [1] [s⁻¹] | Kd [2] [nM] | Binder
8 | 0.00278 | 2.78 | L2.1D12 (Fab, V domains shown, tested as Fab (E. coli lysate, screening mode); human kappa CL and IgG2 CH1 not included here) VH: EVQLVESGGGLVQPGGSLRLSCAASGFTFSSYAISWVRQAPGKGLEWVASVSGWFDTYYPDSVKGRFTISRDNAKNSLYLQMNSLRAEDTAVYYCATSLQNYAFDYWGQGTTVTVSS VL: EIVLTQSPATLSLSPGERATLSCRASESVDDFGISFMNWYQQKPGQAPRLLIYAASKQGSGIPARFSGSGSGTDFTLTISSLEPEDFAVYYCQQSKEVPPTFGGGTKVEIK
9 | 0.00276 | 2.76 | L2.4G10 (Fab, V domains shown, tested as Fab (E. coli lysate, screening mode); human kappa CL and IgG2 CH1 not included here) VH: EVQLVESGGGLVQPGGSLRLSCAASGFTFSSYAISWVRQAPGKGLEWVASVSGWLDTYYPDSVKGRFTISRDNAKNSLYLQMNSLRAEDTAVYYCATSLRNYAFDYWGQGTTVTVSS VL: EIVLTQSPATLSLSPGERATLSCRASESVDDFGISFMNWYQQKPGQAPRLLIYAASKQGSGIPARFSGSGSGTDFTLTISSLEPEDFAVYYCQQSKEVPPTFGGGTKVEIK
10 | 0.00274 | 2.74 | L2.P4.H3 (Fab, V domains shown, tested as Fab (E. coli lysate, screening mode); human kappa CL and IgG2 CH1 not included here) VH: EVQLVESGGGLVQPGGSLRLSCAASGFTFSSYAISWVRQAPGKGLEWVASVSGWLDTYYPDSVKGRFTISRDNAKNSLYLQMNSLRAEDTAVYYCATSLENYAFDYWGQGTTVTVSS VL: EIVLTQSPATLSLSPGERATLSCRASESVDDFGISFMNWYQQKPGQAPRLLIYAASKQGSGIPARFSGSGSGTDFTLTISSLEPEDFAVYYCQQSKEVPPTFGGGTKVEIK
11 | 0.00255 | 2.55 | L2.1G8 (Fab, V domains shown, tested as Fab (E. coli lysate, screening mode); human kappa CL and IgG2 CH1 not included here) VH: EVQLVESGGGLVQPGGSLRLSCAASGFTFSSYAISWVRQAPGKGLEWVASVSGWFDTYYPDSVKGRFTISRDNAKNSLYLQMNSLRAEDTAVYYCATSLENYAFDYWGQGTTVTVSS VL: EIVLTQSPATLSLSPGERATLSCRASESVDDFGISFMNWYQQKPGQAPRLLIYAASKQGSGIPARFSGSGSGTDFTLTISSLEPEDFAVYYCQQSKEVPPTFGGGTKVEIK
12 | 0.00212 | 2.12 | L2.1F11 (Fab, V domains shown, tested as Fab (E. coli lysate, screening mode); human kappa CL and IgG2 CH1 not included here) VH: EVQLVESGGGLVQPGGSLRLSCAASGFTFSSYAISWVRQAPGKGLEWVASVSGWLDTYYPDSVKGRFTISRDNAKNSLYLQMNSLRAEDTAVYYCATSLQNYAFDYWGQGTTVTVSS VL: EIVLTQSPATLSLSPGERATLSCRASESVDDFGISFMNWYQQKPGQAPRLLIYAASKQGSGIPARFSGSGSGTDFTLTISSLEPEDFAVYYCQQSKEVPPTFGGGTKVEIK
13 | 0.00207 | 2.07 | L2.1B11 (Fab, V domains shown, tested as Fab (E. coli lysate, screening mode); human kappa CL and IgG2 CH1 not included here) VH: EVQLVESGGGLVQPGGSLRLSCAASGFTFSSYAISWVRQAPGKGLEWVASVSGWFDTYYPDSVKGRFTISRDNAKNSLYLQMNSLRAEDTAVYYCATSLRNYAFDYWGQGTTVTVSS VL: EIVLTQSPATLSLSPGERATLSCRASESVDDFGISFMNWYQQKPGQAPRLLIYAASKQGSGIPARFSGSGSGTDFTLTISSLEPEDFAVYYCQQSKEVPPTFGGGTKVEIK
14 | 0.00021 | 0.21 | L3.1B12 (Fab, V domains shown, tested as Fab (E. coli lysate, screening mode); human kappa CL and IgG2 CH1 not included here) VH: EVQLVESGGGLVQPGGSLRLSCAASGFTFSSYAISWVRQAPGKGLEWVASVSGWFGTYYPDSVKGRFTISRDNAKNSLYLQMNSLRAEDTAVYYCATSLENYAFDYWGQGTTVTVSS VL: EIVLTQSPATLSLSPGERATLSCRASESVDDFGISFINWYQQKPGQAPRLLIYAGSKQGSGIPARFSGSGSGTDFTLTISSLEPEDFAVYYCQQLKEVPPTFGGGTKVEIK
15 | 0.00018 | 0.184 | L3.1A3 (Fab, V domains shown, tested as Fab (E. coli lysate, screening mode); human kappa CL and IgG2 CH1 not included here) VH: EVQLVESGGGLVQPGGSLRLSCAASGFTFSSYAISWVRQAPGKGLEWVASVSGWFHTYYPDSVKGRFTISRDNAKNSLYLQMNSLRAEDTAVYYCATSLRNYAFDYWGQGTTVTVSS VL: EIVLTQSPATLSLSPGERATLSCRASESVDDFGISFINWYQQKPGQAPRLLIYAGSKQGSGIPARFSGSGSGTDFTLTISSLEPEDFAVYYCQQLKEVPPTFGGGTKVEIK
